The values below come from patent US20230035235A1.

One assay deals with SMARCD1 (human) (UniProt Q96GM5). Briefly: HA affinity purification of HA-DPF2 from HEK-293T nuclear extract, glycerol gradient fraction 14, mass spectrometry of co-purified proteins.
For assay [1], the target named is ACTL6A (human) (UniProt O96019). The description is as above.
The target of assay [2] is SS18L1 (human) (UniProt O75177). The assay is described as above.
The target in assay [3] is SMARCB1 (human) (UniProt Q12824). Described as above.
SMARCB1 (human), sequence (Q12824 whole entry): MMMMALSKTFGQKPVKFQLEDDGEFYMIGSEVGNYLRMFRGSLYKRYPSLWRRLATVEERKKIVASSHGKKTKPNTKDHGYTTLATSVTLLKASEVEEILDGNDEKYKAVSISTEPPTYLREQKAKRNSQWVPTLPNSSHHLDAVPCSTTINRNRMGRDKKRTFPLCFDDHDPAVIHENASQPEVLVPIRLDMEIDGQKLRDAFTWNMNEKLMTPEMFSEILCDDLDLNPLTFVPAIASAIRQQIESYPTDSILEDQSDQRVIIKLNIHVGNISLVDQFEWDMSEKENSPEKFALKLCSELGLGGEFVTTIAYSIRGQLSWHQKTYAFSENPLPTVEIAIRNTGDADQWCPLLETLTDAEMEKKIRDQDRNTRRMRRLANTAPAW
The target of another assay is SMARCD2 (human) (UniProt Q92925). The description is as above.
For another assay, the target named is SMARCE1 (human) (UniProt Q969G3). Described as above.
Another assay addresses SS18 (human) (UniProt Q15532). Described as above.
The target of assay [4] is BCL7A (human) (UniProt Q4VC05). The description is as above.
BCL7A (human), sequence (Q4VC05 whole entry): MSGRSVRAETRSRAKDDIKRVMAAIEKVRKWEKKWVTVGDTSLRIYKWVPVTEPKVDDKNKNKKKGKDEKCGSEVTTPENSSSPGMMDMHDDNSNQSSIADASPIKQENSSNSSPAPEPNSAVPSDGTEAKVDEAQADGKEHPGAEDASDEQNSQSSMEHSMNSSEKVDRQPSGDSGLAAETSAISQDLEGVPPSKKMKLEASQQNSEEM
The target in assay [5] is BCL7C (human) (UniProt Q8WUZ0). The description is as above.
Assay [6] addresses DPF1 (entry E9PDV3) (human). The assay can be described thus: HA affinity purification of HA-SMARCD1 mSWI/SNF complexes from HEK-293T nuclear extract, glycerol gradient fraction 15, mass spectrometry; co-purification in the complex, not necessarily direct contact.
The target of assay [7] is SMARCA4 (entry Q9HBD4) (human). The description is as above.
Assay [8] has as its target ACTL6A (human) (UniProt O96019). The assay can be described thus: HA affinity purification from HEK-293T nuclear extract, glycerol gradient fraction 15, mass spectrometry (co-purification in the complex).
In another assay the target is BRD7 (human) (UniProt Q9NPI1). The assay is described as above.
For another assay, the target named is PHF10 (human) (UniProt Q8WUB8). Described as above.
PHF10 (human), sequence (Q8WUB8 2-498 limits assumed): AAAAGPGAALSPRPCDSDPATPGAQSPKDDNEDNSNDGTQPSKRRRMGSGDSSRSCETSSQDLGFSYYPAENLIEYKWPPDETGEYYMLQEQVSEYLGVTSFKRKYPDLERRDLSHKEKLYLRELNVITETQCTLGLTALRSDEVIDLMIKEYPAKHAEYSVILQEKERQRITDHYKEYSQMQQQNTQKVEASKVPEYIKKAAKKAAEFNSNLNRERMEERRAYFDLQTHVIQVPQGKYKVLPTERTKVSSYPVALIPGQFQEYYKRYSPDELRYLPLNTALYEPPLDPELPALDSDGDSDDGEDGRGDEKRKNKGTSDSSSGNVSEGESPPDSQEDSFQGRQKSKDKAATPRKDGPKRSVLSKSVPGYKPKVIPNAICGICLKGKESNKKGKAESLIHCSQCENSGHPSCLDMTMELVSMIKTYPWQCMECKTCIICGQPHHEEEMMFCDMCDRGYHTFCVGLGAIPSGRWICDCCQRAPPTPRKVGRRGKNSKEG
A further assay has as its target GLTSCR1L (human) (UniProt Q6AI39). The assay is described as above.
Assay [9] has as its target SS18L1 (human) (UniProt O75177). Described as above.
The target in a further assay is BRD9 (human) (UniProt Q9H8M2). The description is as above.
The target in assay [10] is SMARCB1 (human) (UniProt Q12824). The assay is described as above.
The target of a further assay is GLTSCR1 (human) (UniProt Q9NZM4). Described as above.
For the next assay, the target named is PBRM1 (human) (UniProt Q86U86). The description is as above.
The target of the next assay is DPF2 (human) (UniProt Q92785). Described as above.
DPF2 (human), sequence (Q92785 2-391 limits assumed): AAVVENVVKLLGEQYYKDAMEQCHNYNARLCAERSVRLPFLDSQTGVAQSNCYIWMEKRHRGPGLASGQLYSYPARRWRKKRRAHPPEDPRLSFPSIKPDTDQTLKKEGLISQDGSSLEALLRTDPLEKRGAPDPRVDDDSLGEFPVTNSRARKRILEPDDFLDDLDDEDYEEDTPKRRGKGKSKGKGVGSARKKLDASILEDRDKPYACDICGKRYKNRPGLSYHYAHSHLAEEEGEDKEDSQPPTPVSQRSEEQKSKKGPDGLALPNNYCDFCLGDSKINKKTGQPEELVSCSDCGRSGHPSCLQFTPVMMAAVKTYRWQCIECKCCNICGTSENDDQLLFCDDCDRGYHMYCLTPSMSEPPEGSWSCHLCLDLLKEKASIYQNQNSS
Assay [11] has as its target BCL7A (human) (UniProt Q4VC05). The description is as above.
The target in assay [12] is BCL7C (human) (UniProt Q8WUZ0). The assay is described as above.
For a further assay, the target named is DPF1 (human) (UniProt Q92782). The assay is described as above.
The target in a further assay is DPF3 (human) (UniProt Q92784). Described as above.
DPF3 (human), sequence (Q92784 whole entry): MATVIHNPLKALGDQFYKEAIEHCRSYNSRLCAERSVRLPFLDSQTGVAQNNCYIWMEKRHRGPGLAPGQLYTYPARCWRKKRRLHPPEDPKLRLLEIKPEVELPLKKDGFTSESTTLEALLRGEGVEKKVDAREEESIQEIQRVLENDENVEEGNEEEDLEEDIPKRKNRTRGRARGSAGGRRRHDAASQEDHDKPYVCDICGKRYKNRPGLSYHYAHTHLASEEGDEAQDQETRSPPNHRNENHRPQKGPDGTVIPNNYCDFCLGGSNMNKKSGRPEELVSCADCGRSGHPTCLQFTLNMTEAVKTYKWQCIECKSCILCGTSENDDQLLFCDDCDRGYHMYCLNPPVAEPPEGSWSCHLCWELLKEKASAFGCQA
The target in assay [13] is DPF2 (Double PHD Fingers 2) (human) (UniProt Q92785). Briefly: colloidal blue stain and fluorometric analysis of DPF2-purified complexes.

SS18L1 (human), sequence (O75177 whole entry): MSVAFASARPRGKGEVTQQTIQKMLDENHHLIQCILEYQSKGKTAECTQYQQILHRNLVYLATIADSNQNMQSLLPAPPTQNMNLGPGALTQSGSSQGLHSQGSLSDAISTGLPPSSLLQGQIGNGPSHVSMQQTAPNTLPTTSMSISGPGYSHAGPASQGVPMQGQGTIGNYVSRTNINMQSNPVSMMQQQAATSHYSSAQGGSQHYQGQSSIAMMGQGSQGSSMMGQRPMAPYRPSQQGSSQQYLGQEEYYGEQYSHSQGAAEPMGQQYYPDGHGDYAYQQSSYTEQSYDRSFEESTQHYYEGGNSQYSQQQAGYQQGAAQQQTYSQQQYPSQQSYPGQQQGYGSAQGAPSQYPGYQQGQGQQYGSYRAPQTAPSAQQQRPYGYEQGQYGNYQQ
ACTL6A (human), sequence (O96019 2-429 limits assumed): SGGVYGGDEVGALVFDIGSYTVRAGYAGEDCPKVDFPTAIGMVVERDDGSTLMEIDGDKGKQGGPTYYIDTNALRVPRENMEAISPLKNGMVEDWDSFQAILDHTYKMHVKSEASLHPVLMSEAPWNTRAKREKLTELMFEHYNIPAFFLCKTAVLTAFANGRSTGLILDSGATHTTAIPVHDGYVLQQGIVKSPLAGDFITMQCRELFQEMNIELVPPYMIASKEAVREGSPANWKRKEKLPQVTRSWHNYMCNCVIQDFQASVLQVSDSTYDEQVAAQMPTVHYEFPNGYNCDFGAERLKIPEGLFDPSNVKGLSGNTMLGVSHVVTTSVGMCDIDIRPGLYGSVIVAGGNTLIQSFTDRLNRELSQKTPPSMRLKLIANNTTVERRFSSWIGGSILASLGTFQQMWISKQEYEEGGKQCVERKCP
SMARCD1 (human), sequence (Q96GM5 whole entry): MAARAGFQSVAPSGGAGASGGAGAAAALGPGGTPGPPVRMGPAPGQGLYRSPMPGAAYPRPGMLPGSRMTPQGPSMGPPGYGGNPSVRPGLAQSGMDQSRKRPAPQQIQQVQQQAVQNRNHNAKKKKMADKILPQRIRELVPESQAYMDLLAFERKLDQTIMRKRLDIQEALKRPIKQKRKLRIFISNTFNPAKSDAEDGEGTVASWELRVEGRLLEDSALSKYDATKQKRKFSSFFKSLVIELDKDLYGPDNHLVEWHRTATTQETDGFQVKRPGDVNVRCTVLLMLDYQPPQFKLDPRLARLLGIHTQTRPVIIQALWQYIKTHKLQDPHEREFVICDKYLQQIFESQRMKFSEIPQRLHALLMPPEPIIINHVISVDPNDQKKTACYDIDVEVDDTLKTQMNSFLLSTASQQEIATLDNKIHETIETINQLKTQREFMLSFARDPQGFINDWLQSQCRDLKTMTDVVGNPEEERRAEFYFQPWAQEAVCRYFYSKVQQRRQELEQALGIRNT
GLTSCR1L (human), sequence (Q6AI39 whole entry): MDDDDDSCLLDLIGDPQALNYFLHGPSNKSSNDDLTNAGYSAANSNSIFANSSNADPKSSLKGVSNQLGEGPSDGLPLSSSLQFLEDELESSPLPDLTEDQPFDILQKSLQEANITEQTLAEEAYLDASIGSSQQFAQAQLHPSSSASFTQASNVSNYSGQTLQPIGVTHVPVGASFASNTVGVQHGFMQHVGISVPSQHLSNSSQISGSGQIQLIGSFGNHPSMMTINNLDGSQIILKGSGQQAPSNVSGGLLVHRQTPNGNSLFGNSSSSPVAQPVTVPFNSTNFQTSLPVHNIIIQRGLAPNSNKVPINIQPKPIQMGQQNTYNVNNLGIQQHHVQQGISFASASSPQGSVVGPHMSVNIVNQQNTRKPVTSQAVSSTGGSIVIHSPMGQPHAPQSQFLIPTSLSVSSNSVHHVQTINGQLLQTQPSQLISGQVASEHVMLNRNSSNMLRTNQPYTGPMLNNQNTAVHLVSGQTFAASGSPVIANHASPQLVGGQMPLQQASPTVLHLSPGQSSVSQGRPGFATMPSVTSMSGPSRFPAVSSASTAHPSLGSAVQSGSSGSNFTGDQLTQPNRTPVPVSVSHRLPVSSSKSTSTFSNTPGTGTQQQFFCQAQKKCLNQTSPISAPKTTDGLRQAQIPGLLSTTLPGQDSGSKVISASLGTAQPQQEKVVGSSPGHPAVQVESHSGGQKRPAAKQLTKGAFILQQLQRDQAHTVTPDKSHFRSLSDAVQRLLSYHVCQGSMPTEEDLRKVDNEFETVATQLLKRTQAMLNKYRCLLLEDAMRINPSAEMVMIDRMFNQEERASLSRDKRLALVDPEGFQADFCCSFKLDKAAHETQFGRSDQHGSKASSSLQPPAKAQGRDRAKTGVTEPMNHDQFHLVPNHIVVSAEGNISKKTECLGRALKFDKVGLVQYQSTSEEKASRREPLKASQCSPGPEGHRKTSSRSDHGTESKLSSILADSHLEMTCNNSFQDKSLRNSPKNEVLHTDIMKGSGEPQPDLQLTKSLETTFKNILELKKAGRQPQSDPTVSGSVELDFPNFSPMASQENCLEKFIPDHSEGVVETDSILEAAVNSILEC
SS18 (human), sequence (Q15532 2-418 limits assumed): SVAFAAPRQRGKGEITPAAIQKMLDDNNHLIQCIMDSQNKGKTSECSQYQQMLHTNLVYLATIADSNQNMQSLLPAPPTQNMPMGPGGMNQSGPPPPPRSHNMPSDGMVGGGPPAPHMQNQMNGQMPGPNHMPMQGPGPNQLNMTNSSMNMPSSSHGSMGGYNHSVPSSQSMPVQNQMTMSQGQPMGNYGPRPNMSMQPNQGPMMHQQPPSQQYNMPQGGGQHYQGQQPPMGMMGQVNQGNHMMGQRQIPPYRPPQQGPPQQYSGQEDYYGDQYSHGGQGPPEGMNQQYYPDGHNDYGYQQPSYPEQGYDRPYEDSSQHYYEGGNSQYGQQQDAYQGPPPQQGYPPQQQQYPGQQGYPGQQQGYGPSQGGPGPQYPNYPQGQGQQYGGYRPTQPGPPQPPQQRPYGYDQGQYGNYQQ

In the case of HA-DPF2 (from UniProt Q92785 1-391), the total peptides came to 83 peptides with SMARCD1 (human); 61 peptides with ACTL6A (human) [1]; 3 peptides in the assay with SS18L1 (human) [2]; 62 peptides with SMARCB1 (human) [3]; 51 peptides in the assay with SMARCD2 (human); 118 peptides with SMARCE1 (human). In addition, the total peptides with SS18 (human) amounted to 2 peptides; with BCL7A (human) [4], 36 peptides; with BCL7C (human) [5], 13 peptides. Besides, the unique peptides came out at 37 peptides in the assay with SMARCD1 (human); 23 peptides in the assay with ACTL6A (human) [1]; 2 peptides in the assay with SS18L1 (human) [2]; 22 peptides in the assay with SMARCB1 (human) [3]; 32 peptides in the assay with SMARCD2 (human); 40 peptides with SMARCE1 (human). Also, the unique peptides came out at 2 peptides in the assay with SS18 (human) and 7 peptides with BCL7C (human) [5].
HA-SMARCD1 (from UniProt Q96GM5 1-515): the total peptides in assay [6] was determined as 1; in assay [7], 1; with ACTL6A (human) [8], 58 peptides; with BRD7 (human), 29 peptides; in the assay with PHF10 (human) it was 14 peptides; with GLTSCR1L (human), 1 peptides. Moreover, the total peptides amounted to 2 peptides in the assay with SS18L1 (human) [9]; 8 peptides with BRD9 (human); 75 peptides with SMARCB1 (human) [10]; 11 peptides with GLTSCR1 (human); 115 peptides with PBRM1 (human); 41 peptides with DPF2 (human). Besides, the total peptides in the assay with BCL7A (human) [11] is 33 peptides; in the assay with BCL7C (human) [12], 19 peptides; in the assay with DPF1 (human), 7 peptides; with DPF3 (human), 12 peptides. Further, the unique peptides in assay [6] amounted to 1; in [7] it was 1; with BRD7 (human), 19 peptides; with PHF10 (human), 14 peptides; in the assay with GLTSCR1L (human), 1 peptides; in the assay with SS18L1 (human) [9], 2 peptides. The unique peptides was 8 peptides in the assay with BRD9 (human); 10 peptides with GLTSCR1 (human); 79 peptides in the assay with PBRM1 (human); 19 peptides in the assay with DPF2 (human); 12 peptides with BCL7A (human) [11]; 8 peptides with BCL7C (human) [12]. Moreover, the unique peptides with DPF1 (human) was 6 peptides; with DPF3 (human), 10 peptides.
With “SMARCC2 (SWI/SNF related, matrix associated, actin dependent regulator of chromatin subfamily c member 2) (from UniProt Q8TAQ2 1-1214)”, in [13], the stoichiometry relative to DPF2 bait (copies per DPF2) stood at 1.
